According to paper PMC5058683, “Structural basis for small molecule targeting of the programmed death ligand 1 (PD-L1)” (Oncotarget, 2016):

Target: human PD-1 (33-150, Cys93 exchanged to serine) (human, UniProt Q15116 33-150, Cys93 exchanged to serine)
Experiment: NMR titration; AIDA assay: 15N-labelled PD-1 (0.2 mM) slightly overtitrated with unlabelled PD-L1; 1H-15N HMQC linewidths; 300 K; complex mass estimated from relaxation time analysis
Settings: both partners purified

human PD-1 (33-150, Cys93 exchanged to serine), sequence (Q15116 other isoform, or with tags, fused parts or gaps Cys93 exchanged to serine | Cys93 exchanged to serine): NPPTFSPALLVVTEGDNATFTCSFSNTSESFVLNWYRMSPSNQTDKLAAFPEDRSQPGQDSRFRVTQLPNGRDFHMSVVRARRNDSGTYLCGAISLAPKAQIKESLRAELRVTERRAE

B1: human PD-L1 (amino acids 18-134) (domain or fragment)
chain: AFTVTVPKDLYVVEYGSNMTIECKFPVEKQLDLAALIVYWEMEDKNIIQFVHGEEDLKVQHSSYRQRARLLKDQLSLGNAALQITDVKLQDAGVYRCMISYGGADYKRITVKVNAPY
notes: human PD-L1 (programmed death ligand 1), amino acids 18-134, the distal extracellular IgG like domain; Cloned into pET-21b; The vector may add a C-terminal His tag with a short linker (surmised), and the deposited entries 5J89 and 5J8O would show it; Made in bacteria, so not glycosylated; Uniformly 15N-labelled in some NMR experiments; also called hPD-L1; programmed death ligand 1
stoichiometry N: 1
